A word on the EC50: it is the midpoint of the concentration-response curve. For orientation: IC50 means the concentration that gives 50% inhibition.

Experiment [1] addresses T1, human CD96v2 expressed on cells (CHO cells; transiently transfected HEK cells) (human, UniProt P40200-2 22-569).
T1 construct: whole, on cells; the cell is named under assay; also called CHO-huCD96; hCD96v2
T1 sequence (looked up): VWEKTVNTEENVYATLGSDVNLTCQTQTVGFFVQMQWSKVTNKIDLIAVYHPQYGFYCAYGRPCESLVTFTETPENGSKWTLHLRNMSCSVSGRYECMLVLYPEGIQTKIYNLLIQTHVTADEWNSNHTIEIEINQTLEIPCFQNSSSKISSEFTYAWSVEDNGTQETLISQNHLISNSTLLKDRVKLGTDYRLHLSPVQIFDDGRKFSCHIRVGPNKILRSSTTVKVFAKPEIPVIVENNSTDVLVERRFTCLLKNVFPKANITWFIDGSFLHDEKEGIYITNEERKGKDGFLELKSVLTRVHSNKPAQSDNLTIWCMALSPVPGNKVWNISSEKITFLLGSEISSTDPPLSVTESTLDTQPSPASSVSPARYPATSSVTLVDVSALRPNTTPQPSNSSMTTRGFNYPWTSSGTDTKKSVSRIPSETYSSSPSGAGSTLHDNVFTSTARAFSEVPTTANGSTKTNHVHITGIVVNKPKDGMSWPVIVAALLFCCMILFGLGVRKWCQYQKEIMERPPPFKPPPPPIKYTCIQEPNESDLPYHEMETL
Description: flow cytometry on CHO cells expressing human CD96v2. For orientation: A flow cytometer gives signals particle by particle.

Experiment [2] has as its target T1, human CD96v2 expressed on cells (CHO …). Description: flow cytometry, inhibition of human CD155-Fc-AF647 binding to CHO cells expressing human CD96v2; competitor CD155-Fc.
Experiment [3] addresses T2, cynomolgus monkey CD96v2 expressed on cells (CHO cells; transiently transfected HEK cells) (cynomolgus monkey, UniProt A0A2K5TWV6 22-569).
T2 construct: the cell is named under assay; also called CHO-cyCD96; Cyno CD96v2
T2 sequence: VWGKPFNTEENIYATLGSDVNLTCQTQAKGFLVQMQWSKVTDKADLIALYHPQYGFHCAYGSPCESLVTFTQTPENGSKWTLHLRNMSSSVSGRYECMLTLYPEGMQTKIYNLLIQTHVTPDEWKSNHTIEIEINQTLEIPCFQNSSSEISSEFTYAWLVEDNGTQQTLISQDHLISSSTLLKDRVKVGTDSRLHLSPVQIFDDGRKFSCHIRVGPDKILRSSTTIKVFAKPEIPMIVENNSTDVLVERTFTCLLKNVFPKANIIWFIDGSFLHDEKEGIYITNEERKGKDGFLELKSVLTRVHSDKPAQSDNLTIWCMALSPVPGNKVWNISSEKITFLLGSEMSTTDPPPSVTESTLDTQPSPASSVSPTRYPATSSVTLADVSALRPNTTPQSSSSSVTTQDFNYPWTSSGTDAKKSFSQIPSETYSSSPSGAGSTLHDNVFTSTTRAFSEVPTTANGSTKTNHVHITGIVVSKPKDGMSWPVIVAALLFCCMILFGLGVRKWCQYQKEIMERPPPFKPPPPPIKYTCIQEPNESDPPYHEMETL
Description: flow cytometry on CHO cells expressing cynomolgus CD96v2.

B1: 42Y073-86F08-1 (antibody, V domains shown)
VH: QVQLVQSGAEVKKPGSSVKVSCKASGGTFSSYAISWVRQAPGQGLEWMGGIIPIFGTASYAQKFQGRVTITADESTSTAYMELSSLRSEDTAVYYCARGAGYYGDKDPMDVWGQGTTVTVSS
VL: DIQLTQSPSSLSASVGDRVTITCRASQSISSYLNWYQQKPGKAPKLLIYAASSLQSGVPSRFSGSGSGTDFTLTISSLQPEDFATYYCQQVLHTITFGGGTKVEIK
B1 registered an EC50 in experiment [1] of 0.07 nM. Besides, the IC50 in experiment [2] is 0.33 nM.

B2: 42Y073-86F08-3 (antibody, V domains shown)
VH: QVQLVQSGAEVKKPGSSVKVSCKASGGTFVNYAISWVRQAPGQGLEWMGGIIPALGTANYAQKFQGRVTITADESTSTAYMELSSLRSEDTAVYYCARGAGYYGDKDPMDVWGQGTTVTVSS
VL: DIQLTQSPSSLSASVGDRVTITCRASQSISSYLNWYQQKPGKAPKLLIYAASSLQSGVPSRFSGSGSGTDFTLTISSLQPEDFATYYCQQVLHTITFGGGTKVEIK
notes: Fully human antibody
As to B2, the midpoint of the response in experiment [1], the EC50, lay at 0.04 nM. Also, the IC50 in experiment [2] is 0.28 nM.

B3: 42Y073-86F08-16 (antibody)
heavy: not shown
light: DIQLTQSPSSLSASVGDRVTITCRASQSISSYLNWYQQKPGKAPKLLIYAASSLQSGVPSRFSGSGSGTDFTLTISSLQPEDFATYYCQQVLHTITFGGGTKVEIKRTVAAPSVFIFPPSDEQLKSGTASVVCLLNNFYPREAKVQWKVDNALQSGNSQESVTEQDSKDSTYSLSSTLTLSKADYEKHKVYACEVTHQGLSSPVTKSFNRGEC
notes: also called 42Y073-88F08-16
On to B3, for which the results for the EC50 in experiment [3] and in experiment [1] were 0.04 nM and 0.03 nM, respectively. Also, the IC50 in experiment [2] worked out at 0.78 nM.

B4: 42Y073-1A01-103 (antibody, V domains shown)
VH: QVQLVQSGAEVKKPGASVKVSCKASGYTFTAYQMHWVRQAPGQGLEWMGIINPAGGWTSYAQKFQGRVTMTRDTSTSTVYMELSSLRSEDTAVYYCARETAYYTTKGNWFDPWGQGTLVTVSS
VL: DIQMTQSPSSLSASVGDRVTITCRASQSISSYLNWYQQKPGKAPKLLIYAASSLQSGVPSRFSGSGSGTDFTLTISSLQPEDFATYYCQQSLYPPRTFGGGTKVEIK
notes: Fully human antibody
As to B4, the values for the EC50 in experiment [3] and in experiment [1] were 0.03 nM and 0.02 nM, respectively. In experiment [2], this molecule returned an IC50 of 0.03 nM.

B5: 42Y073-86F04-6 (antibody, V domains shown)
VH: QVQLVQSGAEVKKPGSSVKVSCKASGGTFSGHAISWVRQAPGQGLEWMGGIIPIFGRARYAQKFQGRVTITADESTSTAYMELSSLRSEDTAVYYCARLLGESGMDVWGQGTTVTVSS
VL: DIQMTQSPSSLSASVGDRVTITCRASQSISSYLNWYQQKPGKAPKLLIYAASSLQSGVPSRFSGSGSGTDFTLTISSLQPEDFATYYCQQPYFSPPTFGGGTKVEIK
notes: Fully human antibody
Regarding B5, the EC50 was 0.11 nM in experiment [3] and 0.06 nM in experiment [1]. The same molecule displayed a half-maximal inhibitory concentration (IC50) in experiment [2] of 0.25 nM.

B6: 42Y073-1A01-85 (antibody, V domains shown)
VH: QVQLVQSGAEVKKPGASVKVSCKASGYTFTSYPMHWVRQAPGQGLEWMGIINPSGGFTSYAQKFQGRVTMTRDTSTSTVYMELSSLRSEDTAVYYCARETAYYTTKGNWFDPWGQGTLVTVSA
VL: DIQMTQSPSSLSASVGDRVTITCRASQSISSYLNWYQQKPGKAPKLLIYAASSLQSGVPSRFSGSGSGTDFTLTISSLQPEDFATYYCQQSLYPPRTFGGGTKVEIK
notes: Fully human antibody
As for B6, the half-maximal effective concentration (EC50) came out at 0.01 nM in experiment [3] and 0.47 nM in experiment [1]. Further, in experiment [2], the IC50 stood at 0.03 nM.

B7: 42Y073-1A01-126 (antibody, V domains shown)
VH: QVQLVQSGAEVKKPGASVKVSCKASGYTFTRYNMHWVRQAPGQGLEWMGWINPAGGSTSYAQKFQGRVTMTRDTSTSTVYMELSSLRSEDTAVYYCARETAYYTTKGNWFDPWGQGTLVTVSA
VL: DIQMTQSPSSLSASVGDRVTITCRASQSISSYLNWYQQKPGKAPKLLIYAASSLQSGVPSRFSGSGSGTDFTLTISSLQPEDFATYYCQQSLYPPRTFGGGTKVEIK
notes: Fully human antibody
For B7, the EC50 was found to be 0.03 nM in experiment [3] and 0.02 nM in experiment [1]. In experiment [2], this molecule registered an IC50 of 0.1 nM.

B8: 42Y073-86F04-3 (antibody, V domains shown)
VH: QVQLVQSGAEVKKPGSSVKVSCKASGGTFSYNAISWVRQAPGQGLEWMGGIIPIMGTARYAQKFQGRVTITADESTSTAYMELSSLRSEDTAVYYCARLLGESGMDVWGQGTTVTVSS
VL: DIQMTQSPSSLSASVGDRVTITCRASQSISSYLNWYQQKPGKAPKLLIYAASSLQSGVPSRFSGSGSGTDFTLTISSLQPEDFATYYCQQPYFSPPTFGGGTKVEIK
notes: Fully human antibody
In the case of B8, the 50% effective concentration (EC50) in experiment [3] and in experiment [1] was 0.04 nM in each case. In addition, the half-inhibitory concentration (IC50) in experiment [2] worked out at 0.31 nM.

B9: 42Y073-1A01-100 (antibody, V domains shown)
VH: QVQLVQSGAEVKKPGASVKVSCKASGYTFTTYRMHWVRQAPGQGLEWMGIINPSGGLTQYAQKFQGRVTMTRDTSTSTVYMELSSLRSEDTAVYYCARETAYYTTKGNWFDPWGQGTLVTVSS
VL: DIQMTQSPSSLSASVGDRVTITCRASQSISSYLNWYQQKPGKAPKLLIYAASSLQSGVPSRFSGSGSGTDFTLTISSLQPEDFATYYCQQSLYPPRTFGGGTKVEIK
notes: Fully human antibody
B9: the EC50 in experiment [3] was 0.04 nM; in experiment [1], 0.02 nM. The IC50 in experiment [2] came out at 0.06 nM.

B10: 42Y073-86F04-4 (antibody, V domains shown)
VH: QVQLVQSGAEVKKPGSSVKVSCKASGGTFESEAISWVRQAPGQGLEWMGGIIPIFGRARYAQKFQGRVTITADESTSTAYMELSSLRSEDTAVYYCARLLGESGMDVWGQGTTVTVSS
VL: DIQMTQSPSSLSASVGDRVTITCRASQSISSYLNWYQQKPGKAPKLLIYAASSLQSGVPSRFSGSGSGTDFTLTISSLQPEDFATYYCQQPYFSPPTFGGGTKVEIK
notes: Fully human antibody
On to B10, for which the results for the EC50 in experiment [3] and in experiment [1] were 0.07 nM and 0.04 nM, respectively. The IC50 in experiment [2] amounted to 0.18 nM.

B11: 42Y073-86F04-5 (antibody, V domains shown)
VH: QVQLVQSGAEVKKPGSSVKVSCKASGGTFSSHAISWVRQAPGQGLEWMGGIIPIFGRGKYAQKFQGRVTITADESTSTAYMELSSLRSEDTAVYYCARLLGESGMDVWGQGTTVTVSS
VL: DIQMTQSPSSLSASVGDRVTITCRASQSISSYLNWYQQKPGKAPKLLIYAASSLQSGVPSRFSGSGSGTDFTLTISSLQPEDFATYYCQQPYFSPPTFGGGTKVEIK
notes: Fully human antibody
For the molecule B11, the EC50 worked out at 0.07 nM in experiment [3] and 0.05 nM in experiment [1]. Moreover, the IC50 in experiment [2] amounted to 0.38 nM.

B12: 42Y073-1A01-191 (antibody, V domains shown)
VH: QVQLVQSGAEVKKPGASVKVSCKASGYTFTKYRMHWVRQAPGQGLEWMGIINPQGGSTSYAQKFQGRVTMTRDTSTSTVYMELSSLRSEDTAVYYCARETAYYTTKGNWFDPWGQGTLVTVSA
VL: DIQMTQSPSSLSASVGDRVTITCRASQSISSYLNWYQQKPGKAPKLLIYAASSLQSGVPSRFSGSGSGTDFTLTISSLQPEDFATYYCQQSLYPPRTFGGGTKVEIK
notes: Fully human antibody
On to B12, for which the values for the concentration giving a half-maximal response (EC50) in experiment [3] and in experiment [1] were 0.02 nM and 0.01 nM, respectively. Besides, in experiment [2], the IC50 amounted to 0.03 nM.

B13: 42Y073-86F04-33 (antibody, V domains shown)
VH: QVQLVQSGAEVKKPGSSVKVSCKASGGTFSSYAISWVRQAPGQGLEWMGGILPIFGRANYAQKFQGRVTITADESTSTAYMELSSLRSEDTAVYYCARLLGESGMDVWGQGTTVTVSS
VL: DIQMTQSPSSLSASVGDRVTITCRASQSISSYLNWYQQKPGKAPKLLIYAASSLQSGVPSRFSGSGSGTDFTLTISSLQPEDFATYYCQQPYFSPPTFGGGTKVEIK
notes: Fully human antibody
As to B13, the results for the EC50 in experiment [3] and in experiment [1] were 0.05 nM and 0.04 nM, respectively. Further, in experiment [2], the IC50 is 0.71 nM.

B14: 42Y073-86F04-18 (antibody, V domains shown)
VH: QVQLVQSGAEVKKPGSSVKVSCKASGGTFSSRAISWVRQAPGQGLEWMGGIIPIMGTARYAQKFQGRVTITADESTSTAYMELSSLRSEDTAVYYCARLLGESGMDVWGQGTTVTVSS
VL: DIQMTQSPSSLSASVGDRVTITCRASQSISSYLNWYQQKPGKAPKLLIYAASSLQSGVPSRFSGSGSGTDFTLTISSLQPEDFATYYCQQPYFSPPTFGGGTKVEIK
notes: Fully human antibody
For the molecule B14, the figures for the EC50 in experiment [3] and in experiment [1] were 0.11 nM and 0.07 nM, respectively. In experiment [2], this molecule showed an IC50 of 0.59 nM.

B15: 42Y073-1A01-97 (antibody, V domains shown)
VH: QVQLVQSGAEVKKPGASVKVSCKASGYTFTRAAMHWVRQAPGQGLEWMGIINPAGGYTSYAQKFQGRVTMTRDTSTSTVYMELSSLRSEDTAVYYCARETAYYTTKGNWFDPWGQGTLVTVSS
VL: DIQMTQSPSSLSASVGDRVTITCRASQSISSYLNWYQQKPGKAPKLLIYAASSLQSGVPSRFSGSGSGTDFTLTISSLQPEDFATYYCQQSLYPPRTFGGGTKVEIK
notes: Fully human antibody
Turning to B15, the EC50 in experiment [3] worked out at 0.02 nM; in experiment [1], 0.77 nM. In experiment [2], this molecule showed a 50% inhibitory concentration (IC50) of 0.03 nM.

These data come from patent US12528864 (GlaxoSmithKline, dated 2026).
